Test results as given in PMC6071530 (2018).

Target: ERBB2 (Homo sapiens (Human), UniProt P04626)
Experiment: SPR (ErbB-Fc on chip, avid)

B1: S100A4 (protein)
chain 1: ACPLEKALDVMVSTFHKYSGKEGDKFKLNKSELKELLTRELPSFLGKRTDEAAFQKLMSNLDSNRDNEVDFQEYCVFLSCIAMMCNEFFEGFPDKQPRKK
chain 2: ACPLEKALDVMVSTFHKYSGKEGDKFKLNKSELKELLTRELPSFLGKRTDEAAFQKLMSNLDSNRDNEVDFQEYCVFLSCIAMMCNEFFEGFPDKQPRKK
Work on B1 yielded a Kd of over 1250 nM.
